Test results taken from patent US20220153851A1 (Five Prime, published 2022).

B1: h0302-L1H2 (antibody, human IgG4 S228P, kappa, V domains shown)
VH: QVQLVQSGAEVKKPGSSVKVSCKASGYTFSDFNIHWVRQAPGQGLEWIGYINPYTDVTVYNEKFKGRATLTSDKSTSTAYMELSSLRSEDTAVYYCASYFDGTFDYALDYWGQGTLVTVSS
VL: EIVLTQSPATLSLSPGERATLSCRASESVDNYGLSFMNWYQQKPGQAPRLLIYTASNLESGIPARFSGSGSRTDFTLTISSLEPEDFAVYYCQQSKELPWTFGQGTKVEIKR
notes: also called Ab11; huAb 0302-L1H2
B2: h0311-L1H2 (antibody, human IgG4 S228P, kappa, V domains shown)
VH: QVQLVQSGAEVKKPGSSVKVSCKASGYIFTDYNMHWVRQAPGQGLEWMGEINPNNGVVVYNQKFKGTTTLTVDKSTSTAYMELSSLRSEDTAVYYCTRALYHSNFGWYFDSWGQGTLVTVSS
VL: DIVLTQSPATLSLSPGERATLSCKASQSVDYDGDSHMNWYQQKPGQAPRLLIYTASNLESGIPARFSGSGSGADFTLTISSLEPEDFAVYYCQQGNEDPWTFGQGTKVEIKR
notes: also called Ab16; huAb 0311-L1H2
B3: cAb 0311 (antibody, human IgG4 S228P, kappa, V domains shown)
VH: EIQLQQSGPDLMKPGASVKMSCKASGYIFTDYNMHWVKQNQGKSLEWMGEINPNNGVVVYNQKFKGTTTLTVDKSSSTAYMDLHSLTSEDSAVYYCTRALYHSNFGWYFDSWGKGTTLTVSS
VL: DIVLTQSPASLAVSLGQRATISCKASQSVDYDGDSHMNWYQQKPGQPPKLLIYTASNLESGIPARFSGSGSGADFTLTIHPVEEEDAATYYCQQGNEDPWTFGGGTRLEIKR
B4: cAb 0302 (antibody, human IgG4 S228P, kappa)
heavy: not shown
light: DVVVTQTPASLAVSLGQRATISCRASESVDNYGLSFMNWFQQKPGQPPKLLIYTASNLESGIPARFSGGGSRTDFTLTIDPVEADDAATYFCQQSKELPWTFGGGTRLEIKRTVAAPSVFIFPPSDEQLKSGTASVVCLLNNFYPREAKVQWKVDNALQSGNSQESVTEQDSKDSTYSLSSTLTLSKADYEKHKVYACEVTHQGLSSPVTKSFNRGEC
B5: h0301-L0H0 (antibody, human IgG4 S228P, kappa)
heavy: not shown
light: EIVLTQSPATLSLSPGERATLSCKASQSVDYDGDNYMNWYQQKPGQAPRLLIYAASNLESGIPARFSGSGSGTDFTLTISSLEPEDFAVYYCHLSNEDLSTFGGGTKVEIKRTVAAPSVFIFPPSDEQLKSGTASVVCLLNNFYPREAKVQWKVDNALQSGNSQESVTEQDSKDSTYSLSSTLTLSKADYEKHKVYACEVTHQGLSSPVTKSFNRGEC
notes: also called Ab1; huAb 0301-L0H0
B6: h0301-L1H0 (antibody, human IgG4 S228P, kappa)
heavy: not shown
light: NIVLTQSPATLSLSPGERATLSCKASQSVDYDGDNYMNWYQQKPGQAPRLLIYAASNLESGIPARFSGSGSGTDFTLTISSLEPEDFAVYYCHLSNEDLSTFGGGTKVEIKRTVAAPSVFIFPPSDEQLKSGTASVVCLLNNFYPREAKVQWKVDNALQSGNSQESVTEQDSKDSTYSLSSTLTLSKADYEKHKVYACEVTHQGLSSPVTKSFNRGEC
notes: also called Ab4; huAb 0301-L1H0

Key:
[1] = biological target: T1, mCSF1R ECD-Fc (mouse); experiment: ELISA, plate coated with mCSF1R ECD-Fc, detection anti-human kappa-HRP, A450
T1 construct: also called mouse CSF1R ECD
Procedure: (§1) Ninety-six well clear-bottom ELISA plates were coated overnight with 1 μg/ml recombinant hCSF1R ECD.506-Fc (SEQ ID NO: 6; FivePrime Therapeutics) or Human M-CSF R Fc Chimera (R&D Systems) in PBS. The next morning, wells were washed four times with 0.05% Tween20 in PBS (PBST) and blocked with Blocker-Blotto (Pierce). Fifty μl of 0.5× serial dilutions of the humanized antibody or parental chimeric antibody, beginning with 2000 ng/ml, diluted 1:1 in Blocker-Blotto were added to the CSF1R-coated wells. After incubation at room temperature (RT) for 90 min, wells were washed four times with PBST, and a 1:5000 dilution of a peroxidase-conjugated Goat anti-Human kappa Light chain antibody (Sigma) in Blocker-Blotto was added to each well. After incubation at RT for 60 min, wells were washed four times with PBST, and 50 μl o-phenylenediamine dihydrochloride peroxidase substrate (Sigma) was added to each well. After incubation at RT for 30 min, A450 values of each well were read directly on a SpectraMaxPlus spectrophotometer with SoftMaxPro software (Molecular Devices).
The binding curve for each humanized antibody binding to mouse CSF1R ECD was determined as described above for human CSF1R, except the wells of the clear-bottom ELISA plates were coated overnight with 2 μg/ml recombinant mCSF1R ECD-Fc (FivePrime Therapeutics, SEQ ID NO: 93).

[2] = biological target: T2, human CSF1R on CSF1R (SEQ ID NO: 2)-transfected CHO cells (human, UniProt P07333 20-972); experiment: cell-based or functional assay
[3] = biological target: T3, cynoCSF1R ECD-Fc (cynomolgus); experiment: ELISA, plate coated with cynoCSF1R ECD-Fc
T3 construct: also called cynomolgus CSF1R ECD
Procedure: as §1
The binding curve for each humanized antibody binding to cynomolgus CSF1R ECD was determined as described above for human CSF1R, except the wells of the clear-bottom ELISA plates were coated overnight with 2 μg/ml recombinant cynoCSF1R ECD-Fc (FivePrime Therapeutics, SEQ ID NO: 8, but without the 19 amino acid leader sequence).

[4] = biological target: T3, cynoCSF1R ECD-Fc; experiment: competition ELISA, blocking of human IL34 binding to cynoCSF1R ECD-Fc
[5] = biological target: T2, human CSF1R on CSF1R (SEQ ID NO: …); experiment: cell-based or functional assay; remark: listed apart in the source
[6] = biological target: T4, hCSF1R ECD.506-Fc (human); experiment: ELISA, plate coated with human CSF1R ECD-Fc
T4 construct: also called human CSF1R ECD-Fc fusion protein; human CSF1R ECD
Procedure: as §1

[7] = biological target: T5, hCSF1R ECD.506 (human, UniProt P07333 20-506); experiment: SPR Biacore T100, antibody captured on anti-human IgG, hCSF1R ECD.506 as analyte, 1:1 model
T5 construct: also called human CSF1R ECD
Procedure: The kₐ, kd, and KD for binding to human CSF1R ECD was determined for each of the humanized antibodies as follows.
Binding kinetics of anti-CSF1R humanized antibodies to CSF1R ECD was determined using Biacore T100 Surface Plasmon Resonance (SPR) (GE Healthcare Life Sciences, Piscataway, N.Y.). Each of the humanized anti-CSF1R antibodies was captured on a CM5 sensor chip immobilized with anti-Human IgG antibody using the Human antibody capture kit (GE Healthcare Life Sciences, Piscataway, N.Y.) at 150 RU so that the Rmax value for hCSF1R ECD.506 (SEQ ID NO: 5) binding was 100 RU. Rmax values of less than 150 RU are recommended for accurately determining kinetic values. […] The association constant, dissociation constant, affinity, and binding capacity of each of the Fabs for human CSF1R ECD was calculated using the Biacore T100 Evaluation software package using the 1:1 binding model.

[8] = biological target: T3, cynoCSF1R ECD-Fc; experiment: competition ELISA, blocking of human CSF1 binding to cynoCSF1R ECD-Fc
Procedure: The humanized antibodies, along with the parental chimeric antibodies (cAbs), were tested for their ability to block human CSF1 binding to human and cynomolgus CSF1R ECD, as follows.
Recombinant Human CSF1 (M-CSF; R&D Systems) was biotinylated using an NH₂-Biotin Labeling Kit (Dojindo Molecular Technologies). One hundred μl of 1 μg/ml biotinylated CSF1 in PBST/0.1% BSA was added to the wells of Reacti-Bind Streptavidin coated plates (Pierce) pre-blocked with SuperBlock blocking buffer (Pierce) according to the manufacturer's instructions. Fifty μl of 0.5× serial dilutions of the humanized antibody or parental chimeric antibody, beginning with 2000 ng/ml, was incubated with 50 ng/ml hCSF1R ECD.506-Fc (SEQ ID NO: 6; FivePrime Therapeutics) or 50 ng/ml cynoCSF1R ECD-Fc (FivePrime Therapeutics, SEQ ID NO: 8, but without the 19 amino acid leader sequence) in 100 μl PBST/0.1% BSA for 90 min at RT, after which the admix was transferred to one or more wells of a ligand-coated plate. After 90 min at RT, wells were washed with PBST, and a 1:5000 dilution of an Fc-fragment-specific peroxidase-conjugated goat anti-human IgG (Jackson Immuno Research) in PBST/0.1% BSA was added to each well. After incubation at RT for 60 min, wells were washed with PBST/0.1% BSA, and o-phenylenediamine dihydrochloride peroxidase substrate (Sigma) was added to each well. After incubation at RT for 30 min, A450 values of each well were read directly on a SpectraMaxPlus spectrophotometer with SoftMaxPro software (Molecular Devices).

[9] = biological target: T2, human CSF1R on CSF1R (SEQ ID NO: …); experiment: cell-based or functional assay; remark: listed apart in the source
[10] = biological target: T2, human CSF1R on CSF1R (SEQ ID NO: …); experiment: cell-based or functional assay; remark: listed apart in the source

Binder | binding result [1] | IC50, inhibition of CSF1-induced CSF1R phosphorylation (head prints 'Human CSF1/Human CSF1R ECD IC50') [2] [µg/mL] | IC50, inhibition of IL34-induced CSF1R phosphorylation (head prints 'Human IL34/Human CSF1R ECD IC50') [2] [µg/mL] | EC50 [3] [µg/mL] | IC50 [4] [µg/mL] | IC50 (read off the curve), CSF1-induced CSF1R phosphorylation [5] [µg/mL] | EC50 [6] [µg/mL] | Kd [7] [pM] | koff [7] [s⁻¹] | kon [7] [M⁻¹ s⁻¹] | IC50 [8] [µg/mL] | IC50 (read off the curve), IL34-induced CSF1R phosphorylation [9] [µg/mL] | CSF1 blocking IC50 (ligand-induced CSF1R phosphorylation in CHO cells) [10] [µg/mL] | IL34 blocking IC50 (ligand-induced CSF1R phosphorylation in CHO cells) [10] [µg/mL]
B1 | no binding (tested: 2000 ng/ml) | 0.598 | 0.495 | 0.172 | 0.541 | ~0.6 | 0.0221 | 560 | 0.00153 | 2.71e+06 | 1.08 | – | – | –
B2 | no binding (tested: 2000 ng/ml) | 0.419 | 0.578 | 0.0203 | 0.0486 | – | 0.0133 | 400 | 0.000609 | 1.51e+06 | 0.0308 | ~0.6 | – | –
B3 | no binding (tested: 2000 ng/ml) | 0.577 | 0.994 | 0.0201 | 0.0521 | – | 0.0176 | – | – | – | 0.0435 | ~1 | – | –
B4 | no binding (tested: 2000 ng/ml) | 0.264 | 0.351 | 0.0173 | 0.0494 | ~0.3 | 0.0159 | – | – | – | 0.0331 | – | – | –
B5 | no binding (tested: 2000 ng/ml) | 1.03 | 0.433 | 0.0151 | 0.0359 | – | 0.0134 | 350 | 0.00111 | 3.22e+06 | 0.0276 | – | 0.305 | 0.341
B6 | no binding (tested: 2000 ng/ml) | 6.15 | 0.378 | 0.0119 | 0.0348 | – | 0.0134 | 350 | 0.00115 | 3.29e+06 | 0.0255 | – | 0.213 | 0.242
